According to article PMC4192513, “A Novel Protein-Protein Interaction in the RES (REtention and Splicing) Complex” (The Journal of Biological Chemistry, 2014):
Ends that are not written are not given here.

How the values were obtained:
[1] = target: T1, Snu17p (residues 1–113) (Saccharomyces cerevisiae, UniProt P40565); test: NMR titration (1H,15N correlation spectra) of 15N-labeled Snu17p (residues 1–113) with Bud13p peptides; format: binding; conditions: 298 K, 20 mM sodium phosphate, pH 6.3, 25 mM NaCl
T1 construct: The concentration of Snu17p (residues 1–113) in the cell (1440 μl) varied between 30 and 70 μM; His6 (N, cleaved yes); GST (N, cleaved yes); made in house; host or cells: Escherichia coli BL21(DE3) pLysS
T1 sequence (P40565 1-113): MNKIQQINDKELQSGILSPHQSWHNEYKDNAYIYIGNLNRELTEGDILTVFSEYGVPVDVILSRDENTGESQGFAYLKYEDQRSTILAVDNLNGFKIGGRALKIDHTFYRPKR
Method: (§1) Recombinant proteins were purified by sonicating the harvested cell pellet in 25 ml of lysis buffer (20 mM Tris, pH 7.5, 300 mM NaCl, 10 mM imidazole, 1 mM DTT, and 0.02% NaN3), also including protease inhibitors, RNase, lysozyme, and 0.2% IGEPAL. After high speed centrifugation (20,000 × g, 30 min) and filtering, each supernatant was applied to Ni-NTA-agarose resin (Qiagen). Several rounds of washing were performed with: lysis buffer including 0.2% IGEPAL, lysis buffer, lysis buffer with high salt concentration (1 M NaCl), and lysis buffer with high imidazole concentration (30 mM imidazole). Finally, each protein was eluted by applying 10 ml of a buffer containing 20 mM Tris, pH 7.5, 300 mM NaCl, 330 mM imidazole, 1 mM DTT, and 0.02% NaN3. Tobacco etch virus protease was added to each sample and incubated overnight at 4 °C. To remove the cleaved GST tag each sample was passed over a second Ni-NTA column. A second purification step included size exclusion chromatography (HiLoad, Superdex 75 16/60, GE Healthcare). In this step, proteins were buffer exchanged into the NMR buffer (20 mM sodium phosphate, pH 6.3, 25 mM NaCl, and 2 mM fresh DTT or Tris(2-carboxyethyl)phosphine, 0.02% NaN3). Stoichiometric hybrid-labeled samples were prepared by mixing excess Bud13p with Snu17p and performing another step of size exclusion chromatography (HiLoad, Superdex 75 16/60, GE Healthcare). Two shorter peptides of Bud13p (residues 221–242 or residues 225–238) were purchased from Peptide Specialty Laboratories (Heidelberg, Germany), and extensively dialyzed before binding experiments.
NMR spectra were recorded at 298 K on an AVIII800 Bruker NMR spectrometer equipped with a cryogenic triple resonance gradient probe. Spectra were processed using NMRPipe ([21]). Protein backbone and side chain assignments were obtained from standard triple resonance experiments ([22]). NOE distance restraints were obtained from ^15N- and ^13C-edited three-dimensional NOESY spectra (mixing time 70 ms) where only Snu17p or Bud13p proteins were labeled. Intermolecular NOE restraints were derived from three-dimensional ^15N,^13C-filtered, ^13C-edited NOESY spectra (mixing time 70 ms) ([22], [23]). Stereospecific assignments of pro-chiral methyl groups of valine and leucine were obtained using 10% ^13C-labeled protein samples ([24]).
To characterize the unexpected molecular features of the Snu17p-Bud13p interaction we proceeded with biophysical and structural characterization of the binary complex (Fig. 3). […] We tested binding to a series of Bud13p fragments to identify the minimum binding region in Bud13p (Fig. 3, a and b). NMR titrations confirmed binding to a Bud13p peptide encompassing residues 201–266 as has been shown previously ([20]).

[2] = target: T1, Snu17p (residues 1–113); test: Isothermal titration calorimetry (ITC) of Bud13p ligands binding to Snu17p; conditions: 25 °C, NMR buffer pH 6.3
Method: as §1, with “Two shorter peptides of Bud13p (residues 221–242 or residues 225–238) were purchased from Peptide Specialty Laboratories (Heidelberg, Germany), and extensively dialyzed before binding experiments.” left out

[3] = test system: Snu17p; test: NMR of 15N-labeled Bud13p in complex with unlabeled Snu17p; format: binding, Saccharomyces cerevisiae; conditions: 15N-labeled Bud13p (residues 222–256), 298 K
Method: as §1, with “Stoichiometric hybrid-labeled samples were prepared by mixing excess Bud13p with Snu17p and performing another step of size exclusion chromatography (HiLoad, Superdex 75 16/60, GE Healthcare). Two shorter peptides of Bud13p (residues 221–242 or residues 225–238) were purchased from Peptide Specialty Laboratories (Heidelberg, Germany), and extensively dialyzed before binding experiments.” left out
(§2) NMR spectra were recorded at 298 K on an AVIII800 Bruker NMR spectrometer equipped with a cryogenic triple resonance gradient probe. […]

[4] = test system: Snu17p (residues 25–113); test: NMR chemical shift perturbation with shorter Snu17p protein (residues 25–113); format: binding, Saccharomyces cerevisiae; conditions: shorter Snu17p protein (residues 25–113) compared with residues 1–113; data not shown
Method: as §1, with “Stoichiometric hybrid-labeled samples were prepared by mixing excess Bud13p with Snu17p and performing another step of size exclusion chromatography (HiLoad, Superdex 75 16/60, GE Healthcare). Two shorter peptides of Bud13p (residues 221–242 or residues 225–238) were purchased from Peptide Specialty Laboratories (Heidelberg, Germany), and extensively dialyzed before binding experiments.” left out
as §2

[5] = Precipitation / solubility of the sample on addition of Bud13p peptide to 15N-labeled Snu17p; format: physicochemical; conditions: addition to recombinant 15N-labeled Snu17p, NMR titration
Method: as §1, with “Two shorter peptides of Bud13p (residues 221–242 or residues 225–238) were purchased from Peptide Specialty Laboratories (Heidelberg, Germany), and extensively dialyzed before binding experiments.” left out

## ENRFAIMPGSRWDGVHRSNGFE [Bud13p^221-242]
[1]
  NMR chemical shift perturbations (CSPs) of Snu17p: affected the same Snu17p residues but to a lesser extent compared with the longer ones

## Bud13p^225-238: Bud13p residues 225–238, purchased from Peptide Specialty Laboratories (Heidelberg) (AIMPGSRWDGVHRS)
[2]
  binding affinity (in words): binds very weakly
[1]
  NMR chemical shift perturbations (CSPs) of Snu17p: hardly induced any NMR spectral changes for Snu17p

## Bud13p^222-256: Bud13p residues 222–256, recombinant from E. coli; optimal Bud13p peptide, minimum interacting region
[3]
  chemical shift changes in Bud13p spectra on binding to Snu17p: extensive chemical shift changes in Bud13p spectra
[4]
  NMR CSPs induced by Bud13p binding: Virtually identical NMR CSPs
[1]
  NMR chemical shift perturbations (CSPs) of Snu17p: large chemical shift changes, induced by Bud13p binding, map on the two helices plus adjacent loop regions of the Snu17p RRM-fold
[5]
  precipitation / solubility of the sample: proteins remained in solution

## Bud13p^201-266: Bud13p residues 201–266, recombinant from E. coli, GST tag cleaved
[1]
  NMR chemical shift perturbations (CSPs) of Snu17p: extensive chemical shift perturbations (CSPs)
[5]
  precipitation / solubility of the sample: led to precipitation of the sample
